Test results from publication PMC2978097 (2010).

Biological target: α-synuclein (Homo sapiens, UniProt P37840)
Assay: fluorescence anisotropy

**Q.** With GVLWVGSKTR [Y39W β-syn 36D] as the binder, how does the Kd read?
**A.** ~1 µM
